25 molecules from patent EP4696707A1 can be followed below.

The labels stand for the following.
B1: Shortened substance (8-35) amino acid Ala substituted (22) (peptide)
peptide: VDRGAGSIREAGGAAGKREQAEEERYFR
B2: Shortened substance (8-35) amino acid Ala substituted (34) (peptide)
peptide: VDRGAGSIREAGGAFGKREQAEEERYAR
B3: Shortened substance (8-35) amino acid Ala substituted (20) (peptide)
peptide: VDRGAGSIREAGAAFGKREQAEEERYFR
B4: Shortened substance (8-35) amino acid Ala substituted (27) (peptide)
peptide: VDRGAGSIREAGGAFGKREAAEEERYFR
B5: Shortened substance (8-35) amino acid Ala substituted (14) (peptide)
peptide: VDRGAGAIREAGGAFGKREQAEEERYFR
B6: Shortened substance (8-35) amino acid Ala substituted (8) (peptide)
peptide: ADRGAGSIREAGGAFGKREQAEEERYFR
B7: Shortened substance (8-35) amino acid Ala substituted (16) (peptide)
peptide: VDRGAGSIAEAGGAFGKREQAEEERYFR
B8: Shortened substance (8-35) amino acid Ala substituted (17) (peptide)
peptide: VDRGAGSIRAAGGAFGKREQAEEERYFR
B9: Shortened substance (8-35) amino acid Ala substituted (9) (peptide)
peptide: VARGAGSIREAGGAFGKREQAEEERYFR
B10: Shortened substance (8-35) amino acid Ala substituted (26) (peptide)
peptide: VDRGAGSIREAGGAFGKRAQAEEERYFR
B11: Shortened substance (8-35) amino acid Ala substituted (11) (peptide)
peptide: VDRAAGSIREAGGAFGKREQAEEERYFR
B12: Shortened substance (8-35) amino acid Ala substituted (32) (peptide)
peptide: VDRGAGSIREAGGAFGKREQAEEEAYFR
B13: Shortened substance (8-35) amino acid Ala substituted (35) (peptide)
peptide: VDRGAGSIREAGGAFGKREQAEEERYFA
B14: Shortened substance (8-35) amino acid Ala substituted (31) (peptide)
peptide: VDRGAGSIREAGGAFGKREQAEEARYFR
B15: Shortened substance (8-35) amino acid Ala substituted (25) (peptide)
peptide: VDRGAGSIREAGGAFGKAEQAEEERYFR
B16: Shortened substance (8-35) amino acid Ala substituted (19) (peptide)
peptide: VDRGAGSIREAAGAFGKREQAEEERYFR
B17: Shortened substance (8-35) amino acid Ala substituted (13) (peptide)
peptide: VDRGAASIREAGGAFGKREQAEEERYFR
B18: Shortened substance (8-35) amino acid Ala substituted (23) (peptide)
peptide: VDRGAGSIREAGGAFAKREQAEEERYFR
B19: Shortened substance (8-35) (peptide)
peptide: VDRGAGSIREAGGAFGKREQAEEERYFR
B20: Shortened substance (8-35) amino acid Ala substituted (24) (peptide)
peptide: VDRGAGSIREAGGAFGAREQAEEERYFR
B21: Shortened substance (8-35) amino acid Ala substituted (33) (peptide)
peptide: VDRGAGSIREAGGAFGKREQAEEERAFR
B22: Shortened substance (8-35) amino acid Ala substituted (15) (peptide)
peptide: VDRGAGSAREAGGAFGKREQAEEERYFR
B23: Shortened substance (8-35) amino acid Ala substituted (30) (peptide)
peptide: VDRGAGSIREAGGAFGKREQAEAERYFR
B24: Shortened substance (8-35) amino acid Ala substituted (29) (peptide)
peptide: VDRGAGSIREAGGAFGKREQAAEERYFR
B25: Shortened substance (8-35) amino acid Ala substituted (10) (peptide)
peptide: VDAGAGSIREAGGAFGKREQAEEERYFR

Chain of ATP5B protein (P06576 48-529 limits assumed): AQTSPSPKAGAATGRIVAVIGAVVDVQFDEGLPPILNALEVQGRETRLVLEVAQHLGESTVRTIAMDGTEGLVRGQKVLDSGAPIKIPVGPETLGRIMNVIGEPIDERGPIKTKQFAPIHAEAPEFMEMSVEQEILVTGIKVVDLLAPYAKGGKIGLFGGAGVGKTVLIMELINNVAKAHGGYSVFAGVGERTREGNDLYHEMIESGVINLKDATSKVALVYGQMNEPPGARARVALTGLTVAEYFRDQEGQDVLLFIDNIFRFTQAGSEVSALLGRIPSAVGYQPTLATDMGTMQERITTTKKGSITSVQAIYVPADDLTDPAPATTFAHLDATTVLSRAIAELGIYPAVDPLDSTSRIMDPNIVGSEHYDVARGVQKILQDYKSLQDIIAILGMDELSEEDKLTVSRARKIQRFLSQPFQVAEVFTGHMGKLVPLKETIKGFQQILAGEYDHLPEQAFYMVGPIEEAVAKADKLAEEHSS

The assay has as its target ATP5B protein (UniProt P06576). Nature of the assay: SPR, ATP5B amine-coupled to CM5 chip, peptide in flow at 50 µl/min; binding relative to SEQ ID NO: 12. For orientation: Surface plasmon resonance follows binding to a sensor surface in real time, without labels.
B1 gave a Binding (%) of 94%. Under B2 stands 92.1%; under B3, 68%. With B4 the figure was 89.5%. In turn, B5 had a Binding (%) of 98.8%. B6: the Binding (%) is 101%. Under B7 stands 97%; under B8, 169%; under B9, 91.6%. With B10 the figure was 94.1%; with B11, 100%. B12 yielded a Binding (%) of 426%. As for B13, the Binding (%) was determined as 110%. Take B14: the Binding (%) is 158%.

B15: the Binding (%) worked out at 85.2%. With B16 the figure was 89.6%.

Consider B17, for which the Binding (%) came to 98.5%. Under B18 stands 102%; under B19, 100%. On to B20, for which the Binding (%) is 100%. Under B21 stands 146%. Under B22 stands 99.3%; under B23, 94%. With B24 the figure was 96.7%; with B25, 104%.
